Laboratory results reported in US20170008928A1, “NOVEL PEPTIDES AND PEPTIDE DERIVATIVES AND USES THEREOF” (Novo Nordisk A/S, priority 2015, published 2017).
Starred links: 1 amine or outer side, 2 acyl side, 3 side chain; linkers in the order of their positions; H or OH if unused. Non-standard residues stand in square brackets, D forms with d. Residues, ends and D or L forms follow the SMILES beside them. No end group written: not given here. *: point of attachment. Phe(4-CH2SO3H) = N[C@@H](Cc1ccc(CS(=O)(=O)O)cc1)C(=O)O; sY = N[C@@H](Cc1ccc(OS(=O)(=O)O)cc1)C(=O)O; C18 diacid = O=C(O)CCCCCCCCCCCCCCCCC(=O)*; NMe1Nal = CN[C@@H](Cc1cccc2ccccc12)C(=O)O; γGlu = O=C(O)[C@H](CCC(=O)[*:2])N[*:1]; NMeF = CN[C@@H](Cc1ccccc1)C(=O)O; dNMeD = CN[C@H](CC(=O)O)C(=O)O; Nle = CCCC[C@H](N)C(=O)O; AEEA = NCCOCCOCC(=O)O

T1: human cholecystokinin-2 receptor (CCK-2R) (Homo sapiens, UniProt P32239)
T1 construct: host or cells: 1321-N1 cells (plasma membranes prepared by Evotec AG Hamburg)
T1 sequence (P32239 1-447): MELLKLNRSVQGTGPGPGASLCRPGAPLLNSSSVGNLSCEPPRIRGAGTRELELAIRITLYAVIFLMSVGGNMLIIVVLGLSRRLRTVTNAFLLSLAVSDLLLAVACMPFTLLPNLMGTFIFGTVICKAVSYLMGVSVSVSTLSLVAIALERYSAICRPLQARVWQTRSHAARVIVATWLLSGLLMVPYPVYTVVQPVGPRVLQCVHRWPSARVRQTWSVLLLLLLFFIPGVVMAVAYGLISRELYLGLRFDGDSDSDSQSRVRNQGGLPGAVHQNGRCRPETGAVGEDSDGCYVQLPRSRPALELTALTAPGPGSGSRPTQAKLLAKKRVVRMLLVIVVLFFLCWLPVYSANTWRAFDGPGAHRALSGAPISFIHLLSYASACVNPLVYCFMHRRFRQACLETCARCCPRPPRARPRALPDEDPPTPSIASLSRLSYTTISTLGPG

T2: human cholecystokinin-1 receptor (human), P32238
T2 chain: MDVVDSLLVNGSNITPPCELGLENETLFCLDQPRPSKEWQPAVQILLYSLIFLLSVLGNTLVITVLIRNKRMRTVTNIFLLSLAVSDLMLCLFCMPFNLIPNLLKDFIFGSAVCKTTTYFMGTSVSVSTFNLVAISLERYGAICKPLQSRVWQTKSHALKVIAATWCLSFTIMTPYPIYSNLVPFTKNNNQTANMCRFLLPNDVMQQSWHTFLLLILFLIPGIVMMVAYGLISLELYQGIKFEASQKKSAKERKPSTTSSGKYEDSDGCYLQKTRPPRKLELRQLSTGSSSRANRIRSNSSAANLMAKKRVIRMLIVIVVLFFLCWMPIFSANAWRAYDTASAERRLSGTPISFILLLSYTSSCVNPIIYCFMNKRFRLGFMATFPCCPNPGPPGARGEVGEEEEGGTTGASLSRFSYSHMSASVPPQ

T3: human cholecystokinin-2 receptor (human), P32239
T3 chain: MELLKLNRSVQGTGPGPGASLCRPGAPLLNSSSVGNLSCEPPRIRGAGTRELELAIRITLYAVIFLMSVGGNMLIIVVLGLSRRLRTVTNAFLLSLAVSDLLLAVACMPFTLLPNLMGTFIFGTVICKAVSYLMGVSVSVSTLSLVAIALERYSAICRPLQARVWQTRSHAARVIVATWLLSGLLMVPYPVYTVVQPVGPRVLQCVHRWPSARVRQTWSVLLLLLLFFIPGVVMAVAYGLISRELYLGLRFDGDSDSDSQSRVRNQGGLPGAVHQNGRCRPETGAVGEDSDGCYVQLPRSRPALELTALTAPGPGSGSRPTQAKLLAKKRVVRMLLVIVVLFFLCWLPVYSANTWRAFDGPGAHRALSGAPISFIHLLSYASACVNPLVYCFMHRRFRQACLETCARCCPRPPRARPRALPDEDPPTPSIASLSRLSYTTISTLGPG


Assays:
[1] = Chemical stability compared to CCK-8s, 8 mM phosphate pH 7.4, RP-UHPLC; format: physicochemical; conditions: for Absolute purity loss (pp): 1 mM in 8 mM sodium phosphate pH 7.4
Experimental: The resulting samples were stored in HPLC vials at 5° C. and 37° C. for 2 weeks. The samples were analysed in the beginning of the experiment (t=0), after one week and after two weeks by RP-UHPLC with a mobile phase containing phosphate and with a gradient of acetonitrile. UV detection at 215 nm was used. Samples after one week and two weeks were analysed twice. The calculations were done as described above, and the results are summarised in Table 7 (average of two determinations).

[2] = target: T1, human cholecystokinin-2 receptor (CCK-2R); experiment: In vitro potency on CCK-2R, whole cell functional assay (IP1 accumulation, IP-One HTRF); format: cell-based; conditions: 1321-N1 cells stably expressing CCK-2R; IP1 accumulation; highest dose tested 1×10^6 pM; read-out: EC50 (CCK-2R)
[3] = Pharmacokinetic (PK) studies in mini-pig, i.v.; format: in vivo; conditions: i.v. 5 nmol/kg, female Göttingen mini-pigs, harmonic mean; for half-life: minipig, plasma, iv, read-out: Plasma terminal half-life (T½) (converted)
Experimental: The purpose of this study is to determine the protraction in vivo of a number of CCK derivatives of the invention after intravenous (i.v.) administration to mini-pigs, i.e. the prolongation of their time in the body and thereby their time of action. This was done in pharmacokinetic (PK) studies, where the terminal half-life of the derivative in question was determined. By terminal half-life is generally meant the period of time it takes to halve a certain plasma concentration, measured after the initial distribution phase.
The derivatives of the compounds listed in Table 4 were subjected to PK studies as described in the following.
Female Göttingen mini-pigs obtained from Ellegaard Göttingen Minipigs (Dalmose, Denmark) at approximately 6 months of age and weighing approximately 17 kg were used in the studies. […] Additional blood samples were collected for the derivatives of Examples 2, 4, 7, 8, and 9 at the following time points: 5, 12, 22, 28 and 144 hours. The blood samples were collected into test tubes containing EDTA buffer for stabilisation and kept on ice for max. 20 minutes before centrifugation. The centrifugation procedure to separate plasma was: 4° C., approx. 2500 g for 10 minutes. Plasma was collected and immediately transferred to Micronic tubes stored at −20° C. until assayed.
Plasma was pipetted into Micronic tubes on dry ice, and kept at −20° C. until analysed for plasma concentration of the respective CCK derivative using LC-MS. The plasma samples (including standard curve samples used for quantitation of unknowns and prepared from blank plasma spiked with CCK compound at a concentration range of 0.5-2000 nM for the compounds of Examples 3, 5, 6 or 0.5-1000 nM for the remaining Example compounds) were protein precipitated using three volumes of methanol and centrifuged (16000×g, 4° C., 20 min). The supernatants were injected into the chromatographic system (TurboFlow Transcend 1250 & 10 valve VIM, Thermo Fisher Scientific) which consisted of an initial Turboflow Cyclone purification column 0.5×50 mm (Thermo Fischer Scientific) and an eluting Aeris peptide 3.6 μm XB—C18 column 2.1×50 mm (Phenomenex) kept at 60° C.
The CCK derivatives of Examples 2-9 were eluted using LC-MS method I: A chromatographic gradient system with mobile phases consisting of water with 0.1 v/v % formic acid (mobile phase A) and water/acetonitrile 10/90 v/v with 0.1 v/v % formic acid (mobile phase B). The 2 minute gradient started at 60% mobile phase B and ended at 100% mobile phase B with a flow of 0.4 mL/min. The CCK derivatives were detected and quantified after on-line infusion of the LC flow to the LTQ OrbiTrap Discovery mass spectrometer (Thermo Fischer Scientific) equipped with an electrospray interface operated in negative mode, ESI− (Sheath gas flow rate at 40, Aux gas flow rate at 30, Sweep gas flow rate at 2, Spray voltage at 2.8 kV, Capillary temp. at 275° C., S-lens RF level at −125 and Heater temp. at 325° C.).
The remaining Example compounds were eluted using LC-MS method II: A chromatographic gradient system with mobile phases consisting of water with 1 v/v % formic acid (mobile phase A) and water/acetonitrile 10/90 v/v with 1 v/v % formic acid (mobile phase B). The initial 0.25 minute gradient started at 0% mobile phase B and ended at 70% mobile phase B followed by the second 2.2 minute gradient started at 70% mobile phase B and ended at 75% mobile phase B with a flow of 0.4 mL/min. These CCK derivatives were detected and quantified as described above except that the Spray voltage was 4.0 kV.
Individual plasma concentration-time profiles were analysed by a non-compartmental model in Phoenix v. 6.3 (Pharsight Inc., Mountain View, Calif., USA).

[4] = target: T1, human cholecystokinin-2 receptor (CCK-2R); experiment: In vitro receptor binding to CCK-2R, SPA displacement of [125I]-CCK-8s from plasma membranes
[5] = target: T2, human cholecystokinin-1 receptor …; experiment: SPA competition vs [125I]-CCK-8s, membranes
[6] = target: T3, human cholecystokinin-2 receptor …; experiment: SPA competition vs [125I]-CCK-8s, membranes
[7] = target: T2, human cholecystokinin-1 receptor …; experiment: cell-based or functional assay
[8] = target: T3, human cholecystokinin-2 receptor …; experiment: cell-based or functional assay

Molecule	IC50 [5]	IC50 [6]	EC50 (CCK-1R) [7]	EC50 (CCK-2R) [8]	other results
CSCC[C@H](NC(=O)[C@H](Cc1ccc(OS(=O)(=O)O)cc1)NC(=O)[C@@H](N)CC(=O)O)C(=O)NCC(=O)N[C@@H](Cc1c[nH]c2ccccc12)C(=O)N[C@@H](CCSC)C(=O)N[C@@H](CC(=O)O)C(=O)N[C@@H](Cc1ccccc1)C(N)=O [CCK-8s, H-Asp-Tyr(SO3H)-Met-Gly-Trp-Met-Asp-Phe-NH2]	–	–	–	–	purity at the start of the experiment (incubation time 0) ([1]; 1 mM in 8 mM sodium phosphate pH 7.4, t=0): 97.94%; Absolute purity loss (pp) ([1]; 5° C., 1 week): −0.04 pp; Absolute purity loss (pp) ([1]; 5° C., 2 weeks): 0.09 pp; Absolute purity loss (pp) ([1]; 37° C., 1 week): 1.42 pp; Absolute purity loss (pp) ([1]; 37° C., 2 weeks): 3.33 pp
CCCC[C@H](NC(=O)[C@H](Cc1c[nH]c2ccccc12)NC(=O)CNC(=O)[C@H](CC(C)C)NC(=O)[C@H](Cc1ccc(OS(=O)(=O)O)cc1)NC(=O)[C@H](CC(=O)O)NC(=O)COCCOCCNC(=O)COCCOCCNC(=O)CC[C@H](NC(=O)CCCCCCCCCCCCCCCCC(=O)O)C(=O)O)C(=O)N(C)[C@H](CC(=O)O)C(=O)N(C)[C@@H](Cc1cccc2ccccc12)C(N)=O [Example 4, 2-[2-[2-[[2-[2-[2-[[(4S)-4-Carboxy-4-(17-carboxyheptadecanoylamino)butanoyl]amino]ethoxy]ethoxy]acetyl]amino]ethoxy]ethoxy]acetyl-Asp-sTyr-Leu-Gly-Trp-Nle-DMeAsp-Me1Nal-amide] ({C18 diacid-γGlu-AEEA-AEEA}-D[sY]LGW[Nle][dNMeD][NMe1Nal]-NH2)	–	–	–	–	EC50 [2]: 340 nM; Plasma terminal half-life (T½) [3]: 147 h
CCCC[C@H](NC(=O)[C@H](Cc1c[nH]c2ccccc12)NC(=O)CNC(=O)[C@H](CC(C)C)NC(=O)[C@H](Cc1ccc(CS(=O)(=O)O)cc1)NC(=O)[C@H](CC(=O)O)NC(=O)COCCOCCNC(=O)COCCOCCNC(=O)CC[C@H](NC(=O)CCCCCCCCCCCCCCCCC(=O)O)C(=O)O)C(=O)N(C)[C@H](CC(=O)O)C(=O)N(C)[C@@H](Cc1ccccc1)C(N)=O [Example 5, 2-[2-[2-[[2-[2-[2-[[(4S)-4-Carboxy-4-(17-carboxyheptadecanoylamino)butanoyl]amino]ethoxy]ethoxy]acetyl]amino]ethoxy]ethoxy]acetyl-Asp-Phe(4-sulfomethyl)-Leu-Gly-Trp-Nle-DMeAsp-MePhe-amide] ({C18 diacid-γGlu-AEEA-AEEA}-D[Phe(4-CH2SO3H)]LGW[Nle][dNMeD][NMeF]-NH2)	–	–	–	–	IC50 [4]: 380 nM; half-life [3]: 106 h
CCCC[C@H](NC(=O)[C@H](Cc1c[nH]c2ccccc12)NC(=O)CNC(=O)[C@H](CC(C)C)NC(=O)[C@H](Cc1ccc(OS(=O)(=O)O)cc1)NC(=O)[C@H](CC(=O)O)NC(=O)CCCCCCCCCCCCCCCCC(=O)O)C(=O)N(C)[C@H](CC(=O)O)C(=O)N(C)[C@@H](Cc1ccccc1)C(N)=O [Example 38, 17-Carboxyheptadecanoyl-Asp-sTyr-Leu-Gly-Trp-Nle-DMeAsp-MePhe-amide]	–	–	–	–	EC50 [2]: > 1000 nM; half-life [3]: 3 h
{C18 diacid-γGlu-AEEA-AEEA}-D[sY]LGWV[DMeAsp][NMeF]-NH2	0.31 nM	6400 nM	0.14 nM	730 nM	–
D[sY]LGWI[DMeAsp][NMeF]-NH2 [Asp-sTyr-Leu-Gly-Trp-Ile-DMeAsp-MePhe-amide]	0.078 nM	6100 nM	0.24 nM	> 1000 nM	–
{C18 diacid-γGlu-AEEA-AEEA}-D[sY]LGWI[DMeAsp][NMeF]-NH2	0.1 nM	2300 nM	0.18 nM	260 nM	–
{C18 diacid-γGlu-AEEA-AEEA}-D[sY]LGWP[DMeAsp][NMeF]-NH2	0.19 nM	1000 nM	0.17 nM	150 nM	–
{C18 diacid-γGlu-AEEA-AEEA}-D[sY]LGWL[DMeAsp][NMeF]-NH2	–	420 nM	0.27 nM	79 nM	–
